1 molecule from paper PMC5241945, “A new enzyme-linked immunosorbent assay (ELISA) for human free and bound kallikrein 9” (Clinical Proteomics, 2017) can be followed below.

This experiment has as its target T1, human recombinant serpinA3 inhibitor (R&D systems) (human, UniProt P01011 24-423).
T1 construct: alpha-1-antichymotrypsin (serpinA3), human, recombinant; also called a1-antichymotrypsin; ACT; source: bought: R&D Systems
T1 sequence (looked up): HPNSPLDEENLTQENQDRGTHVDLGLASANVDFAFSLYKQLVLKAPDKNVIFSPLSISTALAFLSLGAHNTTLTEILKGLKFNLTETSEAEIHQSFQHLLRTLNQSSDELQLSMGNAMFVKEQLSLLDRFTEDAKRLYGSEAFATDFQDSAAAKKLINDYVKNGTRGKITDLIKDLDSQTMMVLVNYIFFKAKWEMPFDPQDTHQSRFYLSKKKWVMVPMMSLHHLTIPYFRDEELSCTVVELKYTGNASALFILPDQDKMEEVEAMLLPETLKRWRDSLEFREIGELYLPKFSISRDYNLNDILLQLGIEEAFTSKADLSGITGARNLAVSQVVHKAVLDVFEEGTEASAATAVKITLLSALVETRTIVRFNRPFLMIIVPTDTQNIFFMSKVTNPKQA
Kind of experiment: ELISA; mat-KLK9 (0.5 μg) incubated alone or with recombinant serpinA3 at molar ratios KLK9/serpinA3 1/0.2, 1/0.5, 1/1 and 1/2 in 50 mM Tris-HCl pH 8.0, 1 h, 37 °C; the free KLK9 left was then measured by the sandwich ELISA (28ED436 / biotinylated 4ED28.2) as % recovery against the control without inhibitor. Conditions: both partners purified. In general terms: In an ELISA, binding on a coated surface is turned into a signal by an enzyme label.

B1: mature form of KLK9 (mat-KLK9) (aa 23–250), recombinant (enzyme, human, UniProt Q9UKQ9 23-250, looked up)
chain: AIGAEECRPNSQPWQAGLFHLTRLFCGATLISDRWLLTAAHCRKPYLWVRLGEHHLWKWEGPEQLFRVTDFFPHPGFNKDLSANDHNDDIMLIRLPRQARLSPAVQPLNLSQTCVSPGMQCLISGWGAVSSPKALFPVTLQCANISILENKLCHWAYPGHISDSMLCAGLWEGGRGSCQGDSGGPLVCNGTLAGVVSGGAEPCSRPRRPAVYTSVCHYLDWIQEIMEN
notes: Human tissue kallikrein 9 (KLK9), UniProt Q9UKQ9 (KLK9_HUMAN); mature form aa 23-250 of the pre-pro-enzyme (1-250), lacking the signal peptide and the pro-segment; Glycosylated: migrates at ~42 kDa, ~25 kDa after PNGase F; also called mature KLK9; kallikrein 9
With B1, the binding result was “binds”.
